{"source": "patent EP3168228A1", "about": "(Spiber Technologies AB, dated 2017)", "key": {"[1]": {"molecular_target": "the molecule itself", "assay": "gel filtration in 20 mM Tris, pH 8, self-association"}, "[2]": {"molecular_target": "the molecule itself", "assay": "SDS-PAGE under non-reducing conditions after thrombin cleavage, self-association"}, "[3]": {"molecular_target": "wildtype NT (NTwt), N-terminal fragment of Euprosthenops australis major spidroin 1 (MaSp1) (Euprosthenops australis)", "assay": "tryptophan fluorescence ratio 339/351 nm against pH, 5 µM protein, two-state fit of the monomer-dimer equilibrium"}, "[4]": {"molecular_target": "the molecule itself", "assay": "tryptophan fluorescence ratio 339/351 nm against pH (self-association, dimerization)"}, "[5]": {"molecular_target": "the molecule itself", "assay": "gel filtration on Superdex-200, self-association"}}, "data": [{"binder": "NTwt-Bri2113-231 fusion protein (other, also called NTwt-Bri2-BRICHOS) MGHHHHHHMSHTTPWTNPGLAENFMNSFMQGLSSMPGFTASQLDDMSTIAQSMVQSIQSLAAQGRTSPNKLQALNMAFASSMAEIAASEEGGGSLSTKTSSIASAMSNAFLQTTGVVNQPFINEITQLVSMFAQAGMNDVSAGNSLVPRGSQTIEENIKIFEEEEVEFISVPVPEFADSDPANIVHDFNKKLTAYLDLNLDKCYVIPLNTSIVMPPRNLLELLINIKAGTYLPQSYLIHEHMVITDRIENIDHLGFFIYRLCHDKETYKL", "values": [{"measurement": "binding result", "setting": "[1]", "value": "binds"}]}, {"binder": "NTD40K/K65D-Bri2113-231 fusion protein (other, also called NTD40K/K65D-Bri2-BRICHOS) MGHHHHHHMSHTTPWTNPGLAENFMNSFMQGLSSMPGFTASQLDKMSTIAQSMVQSIQSLAAQGRTSPNDLQALNMAFASSMAEIAASEEGGGSLSTKTSSIASAMSNAFLQTTGVVNQPFINEITQLVSMFAQAGMNDVSAGNSLVPRGSQTIEENIKIFEEEEVEFISVPVPEFADSDPANIVHDFNKKLTAYLDLNLDKCYVIPLNTSIVMPPRNLLELLINIKAGTYLPQSYLIHEHMVITDRIENIDHLGFFIYRLCHDKETYKL", "values": [{"measurement": "binding result", "setting": "[1]", "value": "binds"}]}, {"binder": "Bri2113-231 protein (Bri2-BRICHOS), truncated BRICHOS domain of Bri2 (other, Released from the NT fusion proteins by thrombin; A 12 kDa band is said to be a truncated form, probably cleaved unspecifically by thrombin; also called Bri2 BRICHOS domain) QTIEENIKIFEEEEVEFISVPVPEFADSDPANIVHDFNKKLTAYLDLNLDKCYVIPLNTSIVMPPRNLLELLINIKAGTYLPQSYLIHEHMVITDRIENIDHLGFFIYRLCHDKETYKL", "values": [{"measurement": "binding result", "setting": "[2]", "value": "binds"}]}, {"binder": "wildtype NT (NTwt), N-terminal fragment of Euprosthenops australis major spidroin 1 (MaSp1) (protein) SHTTPWTNPGLAENFMNSFMQGLSSMPGFTASQLDDMSTIAQSMVQSIQSLAAQGRTSPNKLQALNMAFASSMAEIAASEEGGGSLSTKTSSIASAMSNAFLQTTGVVNQPFINEITQLVSMFAQAGMNDVSA", "values": [{"measurement": "pKa of dimerization", "setting": "[3]", "value": 6.5, "unit": "pH"}]}, {"binder": "NTD40K/K65D, charge-reversed double mutant of the NT fragment of Euprosthenops australis MaSp1 (other, also called charge-reversed NT mutant; mutant NT) SHTTPWTNPGLAENFMNSFMQGLSSMPGFTASQLDKMSTIAQSMVQSIQSLAAQGRTSPNDLQALNMAFASSMAEIAASEEGGGSLSTKTSSIASAMSNAFLQTTGVVNQPFINEITQLVSMFAQAGMNDVSA", "values": [{"measurement": "binding result", "setting": "[4]", "value": "no binding (tested: 5 µM protein, pH 5.6-8.0)"}]}, {"binder": "NTD40K/K65D-β17 fusion protein (other) MGHHHHHHMSHTTPWTNPGLAENFMNSFMQGLSSMPGFTASQLDKMSTIAQSMVQSIQSLAAQGRTSPNDLQALNMAFASSMAEIAASEEGGGSLSTKTSSIASAMSNAFLQTTGVVNQPFINEITQLVSMFAQAGMNDVSAGNSLVPRGSMGEQKLISEEDLGMQISMDYEIKFHGDGDNFDLNLDDSGGDLQLQIRGPGGRVHVHIHSSSGKVDFHVNNDGGDVEVKMH", "values": [{"measurement": "binding result", "setting": "[5]", "value": "binds"}]}]}
